The supplement of paper PMC10065799, “High-throughput profiling of sequence recognition by tyrosine kinases and SH2 domains using bacterial peptide display” (eLife, 2023)

biological target: FGFR3 (UniProt P22607); test: phosphorylation enrichment, bacterial display (enrichment ratio); higher = better substrate or ligand; peptides without Tyr show the background
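Further: 11-residue human phosphosite peptides and single-mutation variants displayed on the E. coli surface, counted by deep sequencing, each peptide's frequency after selection divided by its frequency in the unselected input library; frequency after pTyr selection over input frequency; kinase dosed for 20-30% of maximal phosphorylation in three min.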

Chain of FGFR3 (P22607 whole entry, looked up): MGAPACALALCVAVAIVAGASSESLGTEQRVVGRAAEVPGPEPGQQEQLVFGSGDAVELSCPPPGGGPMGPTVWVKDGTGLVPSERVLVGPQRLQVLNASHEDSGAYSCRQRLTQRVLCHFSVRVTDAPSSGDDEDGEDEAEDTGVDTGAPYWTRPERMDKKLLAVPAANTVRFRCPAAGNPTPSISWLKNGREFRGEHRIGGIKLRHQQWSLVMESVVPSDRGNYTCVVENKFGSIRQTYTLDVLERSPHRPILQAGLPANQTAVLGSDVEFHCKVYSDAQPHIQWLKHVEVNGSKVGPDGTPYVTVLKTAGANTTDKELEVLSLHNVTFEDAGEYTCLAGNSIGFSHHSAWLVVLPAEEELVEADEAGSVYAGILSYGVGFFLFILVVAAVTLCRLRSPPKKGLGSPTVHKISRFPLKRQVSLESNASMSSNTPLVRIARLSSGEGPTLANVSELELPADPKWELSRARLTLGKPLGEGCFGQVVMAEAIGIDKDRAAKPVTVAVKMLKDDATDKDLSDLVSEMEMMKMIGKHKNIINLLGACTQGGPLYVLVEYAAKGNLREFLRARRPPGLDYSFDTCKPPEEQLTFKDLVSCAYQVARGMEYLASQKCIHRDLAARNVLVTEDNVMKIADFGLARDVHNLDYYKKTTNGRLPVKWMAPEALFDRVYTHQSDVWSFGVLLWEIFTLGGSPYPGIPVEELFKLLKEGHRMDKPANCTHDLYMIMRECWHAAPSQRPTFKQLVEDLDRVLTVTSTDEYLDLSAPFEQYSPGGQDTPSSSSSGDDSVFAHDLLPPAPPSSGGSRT

Row | Sequence | phosphorylation enrichment
1 | KYWREYILSLE [GPC3_Y299] | 0.752
2 | VAMELYVFGGV [GAN_Y471] | 0.781
3 | TKGNEYVFRVA | 0.619
4 | DENWFYTQAAS [RPS19_Y54_R56Q] | 0.682
5 | PTEAQYRFIYM [PTPN11_Y511_Q506P] | 2.82
6 | FAKTQYPDVFA [CRX_Y63_YF] | 0.525
7 | FLKDVYVDSKD [NDUFAF4_Y69] | 0.731
8 | QFQLKYSETPF [SIX6OS1_Y129_YF] | 1.11
9 | AQINLYQDVML [ZNF806_Y33] | 1.29
10 | YTFTSYYMHWV [IGHV1-46_Y51] | 2.89
11 | HHIDYYKKTTN [FGFR1_Y654] | 0.803
12 | TKFRNYLIPKG [CYP2C8_Y379] | 0.425
13 | KPNMNYDKLSQ [FLI1_Y332_R337Q] | 0.447
14 | TDKLFYIYTPG [SLC27A4_Y243_S247P] | 0.853
15 | LVPPRYVRSEI [PKP2_Y194_A195V] | 0.605
16 | DLVSEYQQYQD [TUBB3_Y422] | 0.858
17 | LRNIDYFRLDG [ATRX_Y2083_YF] | 10.8
18 | PDSVDYPKKGF [CTSK_Y121_R122P_YF] | 1.05
19 | NLSVPYDSSLK [ABCC8_Y1353_R1352P] | 0.503
20 | GPIFRYDSGGA [CYP11B1_Y81_L83S] | 0.554
21 | ISDNAYQYMLT [MYH7_Y162] | 2.15
22 | NLTLKYPIEHG [ACTA1_Y71_I66N] | 0.549
23 | GGGGSYNVFGN [HNRNPA1_Y312_D314V] | 0.515
24 | PTTKTYFPHFH [HBA1_Y43_D48H] | 0.559
25 | DSGKLYALDGL [INO80_Y1104_V1108G] | 0.715
26 | DYLEKYYKFGC [NNMT_Y24_S29C] | 1.14
27 | LEIETYRRLLD [KRT12_Y429] | 0.627
28 | SHMVNYQPFRK [TEX37_Y25_D24N_YF] | 0.364

test system: Fer (mouse); test: as above

Row | Sequence | phosphorylation enrichment
29 | KYWREYILSLE [GPC3_Y299] | 0.366
30 | VAMELYVFGGV [GAN_Y471] | 0.574
31 | TKGNEYVFRVA | 0.386
32 | DENWFYTQAAS [RPS19_Y54_R56Q] | 0.483
33 | PTEAQYRFIYM [PTPN11_Y511_Q506P] | 1.54
34 | FAKTQYPDVFA [CRX_Y63_YF] | 0.388
35 | FLKDVYVDSKD [NDUFAF4_Y69] | 0.557
36 | QFQLKYSETPF [SIX6OS1_Y129_YF] | 0.789
37 | AQINLYQDVML [ZNF806_Y33] | 15.4
38 | YTFTSYYMHWV [IGHV1-46_Y51] | 1.78
39 | HHIDYYKKTTN [FGFR1_Y654] | 0.646
40 | TKFRNYLIPKG [CYP2C8_Y379] | 0.345
41 | KPNMNYDKLSQ [FLI1_Y332_R337Q] | 0.462
42 | TDKLFYIYTPG [SLC27A4_Y243_S247P] | 0.494
43 | LVPPRYVRSEI [PKP2_Y194_A195V] | 0.522
44 | DLVSEYQQYQD [TUBB3_Y422] | 0.709
45 | LRNIDYFRLDG [ATRX_Y2083_YF] | 1.7
46 | PDSVDYPKKGF [CTSK_Y121_R122P_YF] | 1.52
47 | NLSVPYDSSLK [ABCC8_Y1353_R1352P] | 0.418
48 | GPIFRYDSGGA [CYP11B1_Y81_L83S] | 0.402
49 | ISDNAYQYMLT [MYH7_Y162] | 9.28
50 | NLTLKYPIEHG [ACTA1_Y71_I66N] | 0.375
51 | GGGGSYNVFGN [HNRNPA1_Y312_D314V] | 0.419
52 | PTTKTYFPHFH [HBA1_Y43_D48H] | 0.496
53 | DSGKLYALDGL [INO80_Y1104_V1108G] | 0.719
54 | DYLEKYYKFGC [NNMT_Y24_S29C] | 0.563
55 | LEIETYRRLLD [KRT12_Y429] | 0.471
56 | SHMVNYQPFRK [TEX37_Y25_D24N_YF] | 0.355
